Results on three molecules are retold here after US8227212B2, “Cell that expresses a sulfatase and a formylglycine generating enzyme” (Shire Human Genetic Therapies, Inc., priority 2003, dated 2012).

The test system of data set [1] is ARSA, ARSC and ARSE. Nature of the data set: Co-expression of FGE (SUMF1) and sulfatase cDNAs in cell lines, sulfatase activities. The note with it: co-transfection with ARSA, ARSC and ARSE cDNAs in various cell lines. The format is cell-based, human. From the text:
To test the effect of FGE (SUMF1) on additional sulfatase activities in normal cells we overexpressed ARSA (SEQ ID NO:14), ARSC (SEQ ID NO:18) and ARSE (SEQ ID NO:22) cDNAs in various cell lines with and without co-transfection of the FGE (SUMF1) cDNA and measured sulfatase activities.
To test for functional conservation of the FGE (SUMF1) gene during evolution we overexpressed ARSA, ARSC and ARSE cDNAs in various cell lines with and without co-transfection of the […] and measured sulfatase activities.

The nature of data set [2]: Biodistribution study of IV FGE-activated GALNS in ICR (normal) mice. In kind it is in vivo. The conditions noted are these: single IV injection of 5 mg/kg, two hours after injection. The method, then: Four-week-old ICR (normal) mice were given a single IV injection of 5 mg/kg FGE-activated GALNS. Liver, femur (bone), heart, kidney and spleen were collected two hours after injection and prepared for histological examination. A monoclonal anti-human GALNS antibody was used to detect the presence of injected GALNS in the various tissues. […] Moreover, GALNS was readily observed in all tissues examined using a horseradish-peroxidase reporter system, […].

Data set [3] deals with MKI mice. Kind of data set: Pharmacodynamic study in MKI mice (GALNS deficient, Morquio Knock-In). The format is in vivo. The conditions noted are these: weekly IV 2 mg/kg over 16 weeks. From the text:
The primary cause of skeletal pathology in Morquio patients is keratan sulfate (KS) accumulation in epiphyseal disk (growth plate) chondrocytes due to deficiency of the lysosomal sulfatase, GALNS. The primary objective of in vivo research studies was to determine whether intravenously (IV) administered FGE-activated GALNS was able to penetrate chondrocytes of the growth plate as well as other appropriate cell types in normal mice.
Four-week-old MKI or wild-type mice were given weekly IV injections (n=8 per group) through 20 weeks of age. Each weekly injection consisted of either 2 mg/kg FGE-activated GALNS or vehicle control (no injection for wild-type mice). All mice were sacrificed for histological examination at 20 weeks of age and stained using the following methods: hematoxylin and eosin for cellular morphology, alcian blue for detection of GAGs.

B1: murine FGE (SUMF1): murine FGE (SUMF1) gene, mouse FGE ortholog (SEQ ID NO:49) (nucleic acid, listed as Mus musculus)
DNA: ATGGTCCCCATTCCTGCTGGAGTATTCACAATGGGCACTGATGATCCTCAGATCAGGCAGGATGGAGAAGCCCCTGCCAGGAGAGTCACTGTTGATGGCTTTTACATGGACGCCTATGAAGTCAGCAATGCGGATTTTGAGAAGTTTGTGAACTCGACTGGCTATTTGACAGAGGCTGAGAAGTTTGGAGACTCTTTCGTCTTTGAAGGCATGTTGAGCGAGCAAGTGAAAACGCATATCCACCAGGCAGTTGCAGCTGCTCCATGGTGGTTGCCTGTCAAGGGAGCTAATTGGAGACACCCAGAGGGTCCGGACTCCAGTATTCTGCACAGGTCAAATCATCCGGTTCTCCATGTTTCCTGGAACGATGCTGTTGCCTACTGCACATGGGCGGGCAAGAGGTTGCCTACTGAGGCAGAGTGGGAATACAGCTGTAGAGGAGGCCTGCAGAACAGGCTTTTCCCCTGGGGCAACAAACTGCAGCCCAAAGGACAGCATTATGCCAACATCTGGCAGGGCAAGTTTCCTGTGAGCAACACTGGCGAGGATGGCTTCCAAGGAACTGCCCCCGTTGATGCCTTTCCTCCCAATGGCTATGGCTTATACAACATAGTGGGGAATGTGTGGGAGTGGACCTCAGACTGGTGGACTGTTCACCATTCTGTTGAGGAAACGTTCAACCCAAAGGGTCCCACTTCTGGGAAAGACCGAGTGAAGAAGGGTGGATCCTACATGTGCCATAAGTCCTATTGCTATAGGTACCGCTGTGCAGCTCGAAGCCAGAACACACCAGATAGCTCTGCATCCAACCTGGGATTCCGATGTGCAGCCGACCACCTGCCCACCGCAGACTGA
Regarding B1, the “activity of FGE homologs on overexpressed human sulfatases” value in data set [1] is given as “active on all three human sulfatases”.

B2: Drosophila FGE (SUMF1): Drosophila FGE (SUMF1) gene, fruitfly FGE ortholog (SEQ ID NO:51) (nucleic acid)
DNA: ATGACAACAATTATATTAGTCCTCTTTATTTGGATAGTTTTATTCAATGACGTATCCAGCGACTGTGGCTGCCAAAAGCTCGACCGGAAGGCCCCGGATATGCCGTCCATTTCCGGACAAGTGTGCCAGCAACGAGCACAGGGTGCACACAGCCACTACCGGGATTACTATGGCGAACTGGAGCCAAATATTGCGGACATGTCACTGCTTCCGGGAGGCACGGTTTACATGGGTACTGACAAACCGCACTTTCCGGCCGACCGCGAGGCTCCGGAACGGCAGGTGAAGCTGAATGACTTCTACATCGACAAGTATGAGGTTTCCAACGAAGCCTTTGCGAAGTTTGTTCTGCACACTAACTACACCACGGAGGCTGAGCGATATGGCGACAGTTTTCTGTTTAAGAGCCTTTTGAGCCCATTGGAGCAGAAGAACCTAGAGGACTTCCGAGTGGCGAGCGCTGTCTGGTGGTACAAAGTGGCCGGCGTGAACTGGCGACATCCAAATGGCGTGGACAGCGATATAGACCACTTAGGCCGACACCCGGTAGTGCACGTATCGTGGCGCGACGCTGTGGAGTACTGTAAGTGGGCCGGCAAGCGGTTGCCCAGCGAGGCGGAGTGGGAGGCGGCTTGCAGGGGCGGCAAGGAGCGCAAACTGTTTCCCTGGGGCAACAAGCTGATGCCAAGGAATGAACATTGGCTGAACATCTGGCAGGGAGACTTTCCCGATGGCAACCTGGCTGAAGATGGGTTTGAGTACACCAGCCCCGTGGATGCCTTCCGACAGAATATTTACGACCTGCACAACATGGTGGGCAACGTCTGGGAGTGGACGGCAGATCTGTGGGACGTAAATGACGTTAGCGATAATCCAAATCGGGTCAAGAAGGGCGGTTCTTATCTGTGTCACAAGTCCTACTGCTACAGGTACAGGTGCGCGGCACGCTCGCAGAACACAGAAGACAGTTCAGCCGGTAACCTGGGTTTTCGGTGCGCCAAGAATGCGTGA
modifications: Drosophila melanogaster
In the case of B2, in data set [1], the “activity of FGE homologs on overexpressed human sulfatases” value is reported as “less efficient”.

B3: FGE-activated GALNS: N-Acetylgalactosamine 6-Sulfatase (lysosomal sulfatase) activated by FGE, for enzyme replacement therapy of Morquio disease MPS IVA (protein)
chain: APQPPNILLLLMDDMGWGDLGVYGEPSRETPNLDRMAAEGLLFPNFYSANPLCSPSRAALLTGRLPIRNGFYTTNAHARNAYTPQEIVGGIPDSEQLLPELLKKAGYVSKIVGKWHLGHRPQFHPLKHGFDEWFGSPNCHFGPYDNKARPNIPVYRDWEMVGRYYEEFPINLKTGEANLTQIYLQEALDFIKRQARHHPFFLYWAVDATHAPVYASKPFLGTSQRGRYGDAVREIDDSIGKILELLQDLHVADNTFVFFTSDNGAALISAPEQGGSNGPFLCGKQTTFEGGMREPALAWWPGHVTAGQVSHQLGSIMDLFTTSLALAGLTPPSDRAIDGLNLLPTLLQGRLMDRPIFYYRGDTLMAATLGQHKAHFWTWTNSWENFRQGIDFCPGQNVSGVTTHNLEDHTKLPLIFHLGRDPGERFPLSFASAEYQEALSRITSVVQQHQEALVPAQPQLNVCNWAVMNWAPPGCEKLGKCLTPPESIPKKCLWSH
B3: the “GALNS delivery to bone growth plate chondrocytes (FITC reporter system)” value in data set [2] is “observed in all growth plate sections examined”. Besides, the “presence of injected GALNS in tissues (monoclonal anti-human GALNS antibody)” value in data set [2] (liver, femur (bone), heart, kidney and spleen) is “detected in all tissues examined”. Besides, in data set [3], the “chondrocytes in the calcification zone of the growth plate” value is recorded as “reduction of vacuolization”; the “vacuolized chondrocytes of the hypertrophic and proliferating zones of the growth plate” value was “unaffected”. Further, the “clearance of accumulated GAG (alcian blue staining)” value in data set [3] (soft tissues (liver, heart, kidney and spleen)) is “reduced or absent alcian blue staining”.
